Experimental findings from the DeepSol protein solubility set are described below.

This data set is described as follows: soluble on expression in E. coli; label from the status in PepcDB or PDB records.
As to “MGSDKIHHHHHHMSSIIENLQLAAQQVHLINLYQANSEVVYTGYIDRLAPDGVVVNTYDDAGLQDGAVFMRYDVIDEVEMMSEDLDNMAFRLENATTEGLNSVPQPTVALDDQRPVLTQLVTQAQTDHQVVLLVLEDNENYLEGQVQQVTDQTITFKTFDKFNFKNNGQQEIPLAAIQILEFCGNELLLESAFVKTIHTHRATIKVSEFDDVDHTLNNALNEHQLIAIRSADGSDMFFVGFINALNADSVLLNLIDMTGQFGGYTLCRRSLIESVTTQSDYLQTMRGFIELNRQYELNVQPVLNDERLFDATTDLFDSILRQAATFNNLVHITTENPMLPAMTGYPGTLTNGHFIFYNVDDDNQINHVGTMIELDQVVELSFGYMDAYLLEKRLKSTGNL”, the “soluble on expression in E. coli” value was “not soluble”.

As for “MSDEDERHRKKMKRKTCTGDSKSPAKKKQKIKDKSEEKSHAVQKHDAIGGKADSTKTKVKLSGKDKDKGKISKSAHSTEWTENDKKSSSDGGKKQIKRNEKGQLLFKDHPEFTPNMTPKEVLQAGSFGGTYFRPIYSSITKKHYKDVWKELPEDWLDGLNIPEQVASSTYREKVNTYKVKCGGSLEMWESSGWIVPQDPYGWFQWYCRFYQGRRTEDDARQISRWSKCAGVKGRWRNNLITKVVRSGCAYDNVTVSPVVRQTLQHWGYKLTPEDYKQGAKRVKLK”, the “soluble on expression in E. coli” value is listed as “not soluble”.

“MDEIEKNNGEIIIYRTEDGRTQLEVRLENENVWLSQQQMSELFQTSRTNIVEHIKHIFEEGELEENSTCQIFRQVRIEGTRKVERSIPFYNLDMIISLGYRVKSRVATHFRRWATERLKEYLIKGFAMDDQRLKEIGGGGYWYELLNRIRDIRSSEKVLYRQVLDLYATSVDYDPKADESIRFFKIVQNKLHYAAHGHTAAEVIFERADAEKPFMGLATFPGEQPRKEDVLIAKNYLNEKELKILNNLVSGYFDFAEIQAIKRSPMYMSDYIHHLDLILSTTGEQVLQNAGTISHEQAKQKALGEYRKYHVKTLSPVEEAYFDSIKKLTAETKKKKKK”: the “soluble on expression in E. coli” value was “not soluble”.

Consider “MEKSKPNVVFVLGGPGSGKGTQCANIVRDFGWVHLSAGDLLRQEQQSGSKDGEMIATMIKNGEIVPSIVTVKLLKNAIDANQGKNFLVDGFPRNEENNNSWEENMKDFVDTKFVLFFDCPEEVMTQRLLKRGESSGRSDDNIESIKKRFNTFNVQTKLVIDHYNKFDKVKIIPANRDVNEVYNDVENLFKSMGF”, for which the “soluble on expression in E. coli” value is listed as “soluble”.

With “GDVVEAVENAVARVADTIGSGPSNSQAVPALTAVETGHTSQVTPSDTVQTRHVKNYHSRSESSIENFLSRSACVYMGEYHTTNSDQTKLFASWTISARRMVQMRRKLEIFTYVRFDVEVTFVITSKQDQGTQLGQDMPPLTHQIMYIPPGGPIPKSVTDYTWQTSTNPSIFWTEGNAPPRMSIPFISIGNAYSNFYDGWSHFSQNGVYGYNTLNHMGQIYVRHVNGSSPLPMTSTVRMYFKPKHVKAWVPRPPRLCQYKNASTVNFSPTDITDKRNSITYIPDTVKPDVSNH”, the “soluble on expression in E. coli” value is reported as “soluble”.

Consider “MAHHHHHHMSVFAAARQRAAHYANRNPLFAKLNKTHLEYFNCVLREQCPKNKKPGRMLTDPNKIVSFNRDWMNQVEGECPVVLLPTSTQQVAAILRYCQSEKIGIVPQCGNTGLVYGSSALHDEVILSLREMNGDPVVSPQTMSTEAEAGVILQQLQEAAKTHDLLVPITMGSKGSAQIGGAVSTNAGGIHFARYGSMHANVLGLEVVTAQGEVLDMMSTLRKDNAGYDMKHLFIGSEGTLGVVTRVSLKLYPFPRSTQLALFRLTTFESVLELYRLAQEHLSECLSAFEVVDGESLSVTPQEELPFTRTSKSDTFRAGQDFTSAYFCVMVETNGSNAEHDMEKLSRFVEAAECNPRCVSKGDLGESFEPVLSQSLAQTAQLWNLREDTPVRLASAGTIYIFDVSFPLDKFYDIVLHFRKMIYKNGGFDPDEVLVVGYGHFGDGNIHLNVVDRTRKHSDALDAVLFPAVYEFCAAHSGSISAEHGVGVQKKAYLGFSRKPEVIALMRTLKRTMDPNGILNPYKVID”, for which the “soluble on expression in E. coli” value is “soluble”.

On to “MSYRMFDYLVPNVNFFGPNAISVVGERCQLLGGKKALLVTDKGLRAIKDGAVDKTLHYLREAGIEVAIFDGVEPNPKDTNVRDGLAVFRREQCDIIVTVGGGSPHDCGKGIGIAATHEGDLYQYAGIETLTNPLPPIVAVNTTAGTASEVTRHCVLTNTETKVKFVIVSWRNLPSVSINDPLLMIGKPAALTAATGMDALTHAVEAYISKDANPVTDAAAMQAIRLIARNLRQAVALGSNLQAREYMAYASLLAGMAFNNANLGYVHAMAHQLGGLYDMPHGVANAVLLPHVARYNLIANPEKFADIAELMGENITGLSTLDAAEKAIAAITRLSMDIGIPQHLRDLGVKETDFPYMAEMALKDGNAFSNPRKGNEQEIAAIFRQAF”, for which the “soluble on expression in E. coli” value is reported as “soluble”.

Take “MKVTVIGCYGGFPAANEATSGYLFQSGDYSLLVDCGSAVLSKLFGYVPAEKLDAVVLSHYHHDHIADIGPLQFAKQVGSFLGKGEHTLPIYGHDADIEQFQKLTYKTHTKGIAYQPDQPLTAGPFTITFLKTIHPVTCYAMRITDGSHTVVYTADSSYQDSFIPFSKDADLLISECNFYADQDGTSAGHMNSLEAGRIAKEAGAGELLLTHLPHFGVHDNLRKEAKTVFNGEVNIAKSGFVWEG”: the “soluble on expression in E. coli” value is recorded as “soluble”.

“MPKTQSAAGYKAGVKDYKLTYYTPDYTPKDTDLLAAFRFSPQPGVPADEAGAAIAAESSTGTWTTVWTDLLTDMDRYKGKCYHIEPVQGEENSYFAFIAYPLDLFEEGSVTNILTSIVGNVFGFKAIRSLRLEDIRFPVALVKTFQGPPHGIQVERDLLNKYGRPMLGCTIKPKLGLSAKNYGRAVYECLRGGLDFTKDDENINSQPFQRWRDRFLFVADAIHKSQAETGEIKGHYLNVTAPTCEEMMKRAEFAKELGMPIIMHDFLTAGFTANTTLAKWCRDNGVLLHIHRAMHAVIDRQRNHGIHFRVLAKCLRLSGGDHLHSGTVVGKLEGDKASTLGFVDLMREDHIEADRSRGVFFTQDWASMPGVLPVASGGIHVWHMPALVEIFGDDSVLQFGGGTLGHPWGNAPGATANRVALEACVQARNEGRDLYREGGDILREAGKWSPELAAALDLWKEIKFEFETMDKL”: the “soluble on expression in E. coli” value is reported as “soluble”.

Consider “MGSDKIHHHHHHMTAQRPNRLINESSPYLLQHARNPVDWHPWGEEAFALARSEDKPVFLSIGYSTCHWCHVMAHESFEDEAVAALLNEAFINVKVDREDRPDIDSIYMAACQMLTGSGGWPLTIVMTPDGRPFFAATYIPRLSRGGRTGMLELVPRIRDIWRKQRADVTASADSVAEHMRRHAEGLLRPSSGGAPDDTTVRQAVDTLCQRYDARHGGFGSAPKFPAPHSLLLLLRHAHRTQDAARRAQLTGMVSHTLEAMRLGGIFDHAGYGFHRYSTDKEWLLPHFEKMLYDQAMHVLAYTRGWQLTGRPLFRRTAEEIMMYVMRDLTSPQGAFYAAEDADSDAPPHFAAMGLPHRGEGFFYLFTLQEIRGLLSREDALLAEKIWNLQEEGN”, for which the “soluble on expression in E. coli” value is listed as “not soluble”.

In the case of “SLNKKFSYPIPNFTDRRKSIIFWRYLRFQARKILYFPQVRLLEKTLNKEKNKHLKDFFSQRPYACYNATRRFCDKSFKANERVKTLIYDVDKGLACFKFLPEEQIIFSFDEDFELFLGYNYNVCEEGFWAFSLKFKKYTILQCNFCFTLENNLLLSCIQGHKYKDFNILEINKILTKKCHGLRPVALLIECSKMLCEILKLQTTLGVHEKNQIRSQKGKEKGYFVDYQKIWLENGGELIKINKHKYYKLHHSQKNLEEIPSQKRSMYKKRFAMLEEIKTNLDKTLSIQD”, the “soluble on expression in E. coli” value was “not soluble”.

As to “SFALEELPRIPDFTERAICELFELYASIESVQLPPQSSDATNSSSATAPGNIFSAERGPRYLGPRALVRFFTELGVDMRSLAALAFAWLGRWQYPCHCREEGFARGVRYALWALDRRQHNEPRRWEQVQATCSTLLETSIWPRESTALFERLRSAFPDAVLSYTQRSAEAALDFYLFAFDLNRQSPYRRSLSLTDARYLWKQFLSESCYLATPASPGTPAGVANQPWRYLEHFDAYLESRCGMAGTIISRDTWYWVLMFARETQVAGSSFFANYNQGDAWPVLLDGFVEYLRENKLLSS”, the “soluble on expression in E. coli” value was “soluble”.

In the case of “MAVRVCCHAPPGVSNHLFTFCAGNLTTGFSGGSVTSQKGGAAGLPTCSRRCPRGCLPGSDPLPRHPRRYAPPVTPPVTPPTTPAPRSRARMLELVFPKDTNYHGTAFGGWVLALMDKAASVAAVRHAGGNVVTARMDGVDFHVPIRVGDAVALDARVIRVGRSSMTIRVDVYRENMASGEQQLATGGLFTFVALGEDGKPRPVPPLPEGSTDSEQPDYEARPLEHHHHHH”, the “soluble on expression in E. coli” value is on record as “not soluble”.

For the sequence “MTTPTFDINAAIQALREGKDLTGKDGILTPLIKQLTEAALAAELDGHLASTEGANRKNGKTTKTVKSPLGNFELNTPRDRAGTFEPQLVKKHQTQLTDEMERKIIGLFSLGSSYQDIRAHIEDMYGMSVSNGTVNAITDKLLPELQAWRERELEPLYPVIWLDAIHYKIKENGRFISKAVYTILALNVEGKKELLGLYLSDNEGAHHWLSVLTDLYNRGVKDILIACVDGLKGFPEAIATIYPQTEVQLCVIHQIRNSMKYVASKHQKAFMADLKCVYKAATLNAAEMALDELETKWGDKYPVVIKSWRNKWALLSVYFKYPDYVRTAIYTTNAVEAVHRQFRKLTKTKGGFANENSLLKLLYAGILKASERWTHPIQNWNLTLSQLSIHFEGRLENHIDL”, the “soluble on expression in E. coli” value is “not soluble”.

With “SLKNKTLIALLLACSPTLAFAHNLTVGSPVPAVGVEKHGEIVLQDNNINYQKWRSADLLGKVRVIQAIAGRSSSKEMNAPLMAAITAAKFPAESYQTTTIINQDDAIWGTSSFVKSSAQDSKKEFPWSSMVLDEFGLVAQAWQLQAESSAIIVQDKQGNVLFVKEGALNEADIQTVLGLIQQNL”, the “soluble on expression in E. coli” value was “not soluble”.

As for “SSAEQSFLFSREEADTLRLKVEELEGERSRLEEEKRMLEAQLERRALQGDYDQSRTKVLHMSLNPTSVARQRLREDHSQLQAECERLRGLLRAMERGGTV”, the “soluble on expression in E. coli” value is listed as “soluble”.

As for “MGSDKIHHHHHHMRVASPETFASQSYRLLPFRFERVNDDRFLLINEVGEHCYLNCADLNNLVNGYLTTSGKTFQNLESKSFVYSENNNFALRAFSAKYRARKSFLFDGPALHIFVLTLRCENSCEYCQVTRRSPDAVKYDMPLSIAKQAVLRMFESPAENLTVEFQGGEPLLAYDVLKYIVELCIELNITEQKSLQFVVATSLQNINMEMLEFFHLHNVHISTSVDGPQWLHQLNRPNSCSNSYEKTMHGLEMARGVLGHDRIAGMTTITRSSLTAIKTIIDEYVRLGFHSIFLRPLNMYGFAVKKENKVGYSSEDFNKFYEQALKYIIEINQQGYRLDEVNAALALNNILTPQATGYVDMRSPCGDGTGVLVYNYDGKVYPSDESRMLVEMGDESLALGSVSESYQDLMSSSVLNTILHAGIAEALPGCSDCAYLPYCGANPIQNYSRYGDMIGHRTFSAFCAKQKFLYRYVFNLLQDKSNRTVFNSWLPL”, the “soluble on expression in E. coli” value is listed as “not soluble”.

On to “MGSSHHHHHHSSGLVPRGSHMKGDKRRDIRDILLHDETLFRNMNAFDPDYVPENYRYRESQMEALAVCIRPALRNGRPVNAVILGSCATGKTTAIKKIFEMVESTSEGVVCCYINCQLHTTRFGIFSQIYSKIFGHQPPETGVPFSRIYQTIMQHLASEKRALVVALDDINHLFYSKNANKVLYDILRAHEVFEGVRTGVFAVLSDIEFRYALDKNVDSIFIPQEIVFPPYTREEVFNILRDRVRVGFYPGVISDELLERITDHTMDTGDLRYGIDLLRVCGNLAEADASPVIGEEHLERALKSTGPVNLIHTVRTLNENEREFLRILADAGEDMTAGALYELFRESTGSSYSSFNRIIEKLEFLRLIDTRLTGKGVRGNSRILIPRFSREDLRRCPGF”, for which the “soluble on expression in E. coli” value is given as “soluble”.

As to “MIITGSFGNGHLQVTQSVVNQFKEMNLDNLTVIEHDLFLEAHPILTSICKKWYINSFKYFRNMYKAFYYSQPDQLDKCFYKYYGLNKLMNLLLKEKPDLILLTFPTPVMSVLTEQFDMNIPIATVMTDYRMQKNWITPFSQRYYLATEELKDEFASIGIPKDKLKVTGIPISDKFELEHHHHHH”, the “soluble on expression in E. coli” value is “soluble”.
